In the supplement of paper PMC10724198 one finds protein stability index data, which are given here for 116 sequences.

± gives the standard deviation of the averaged measurements.
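Note: PSI is a weighted mean of sequencing reads over stability bins, variants kept only with over 10 reads, mCherry proximal and sfGFP distal, peptide attached via GGGS linker.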

The test system of the data set is Saccharomyces cerevisiae. As to the kind of experiment: protein stability index of tFT-peptide fusion (C-terminal peptide) (PSI (0-1 scale)); higher = more stable (slower turnover). To be noted: genetic background: wild type; temperature: 30 C.
In the case of IGLSPICAAAYT, the protein stability index is 0.6515 ± 0.001. IGTSGFFSSQAS registered a protein stability index of 0.743 ± 0.065.

IIKKKKKIKRNN: the protein stability index came out at 0.683 ± 0.014. With IKACGLRSFIKS the figure was 0.69 ± 0.059.

For IKIKKKKKKRHR, the protein stability index came out at 0.651 ± 0.059.

In the case of IKIRIAANRTKY, the protein stability index turned out to be 0.63796 ± 0.00029. With IKKIEKANRKTK the figure was 0.661 ± 0.034; with IKKKKKKESRSS, 0.693 ± 0.065. The sequence IKKKKKKKQRKQ showed a protein stability index of 0.65 ± 0.069. With IKKKNRKERQKK the figure was 0.678 ± 0.015; with IKKTKNKETKKT, 0.676 ± 0.045; with IKMKRMTKIKKK, 0.745 ± 0.049. With IKNIKKKKSKTE the figure was 0.702 ± 0.065. Sequence IKRLNNEKSSKA showed a protein stability index of 0.676 ± 0.035. With IKSKERLKKRQS the figure was 0.6679 ± 0.00067; with IKTQKNKQITKI, 0.705 ± 0.071. With IKVNAVAWLFGS the figure was 0.582 ± 0.032; with ILFKSTRAICSL, 0.621 ± 0.051. ILGDGRLRLISF came in with a protein stability index of 0.682 ± 0.05. With ILILDTKPISKT the figure was 0.7258 ± 0.006; with ILLFLRCFSGFF, 0.5619 ± 0.0046; with ILLFSLKHRSDH, 0.63 ± 0.018.

As for ILLLKFSKLNKK, the protein stability index turned out to be 0.66 ± 0.033. With ILLPLRHHSFSD the figure was 0.643 ± 0.0087; with ILLSLSRWGMAG, 0.723 ± 0.024; with ILLYSPFGPPSS, 0.673 ± 0.026.

As for ILPPPYVPARLS, the protein stability index was 0.577 ± 0.054.

The sequence ILSDRVLRVGVK returned a protein stability index of 0.65502 ± 0.00049. Turning to ILSWSGLSTGLE, the protein stability index came out at 0.876 ± 0.065.

For the sequence ILTALRNQPFLM, the protein stability index was determined as 0.669 ± 0.033. For ILTPPPLPDLLP, the protein stability index was 0.706 ± 0.019. With IMKRNKKIKREI, the protein stability index was found to be 0.711 ± 0.024. INKKKQRIRGKN yielded a protein stability index of 0.69 ± 0.064. With INLRENETKQRN the figure was 0.673 ± 0.038. With INPKSGIVVKFR the figure was 0.679 ± 0.04.

Consider IPDRSLFPWTGR, for which the protein stability index came out at 0.661 ± 0.012. With IPFEPSGPFMRN the figure was 0.7362 ± 0.007; with IPLPPHLTPPST, 0.677 ± 0.086. With IPPDAFAQLTYS the figure was 0.733 ± 0.0093; with IPVGTVGTLNAA, 0.66 ± 0.057; with IQRLGTKNTNRI, 0.647 ± 0.039. With IRLLNKAACVTM the figure was 0.742 ± 0.04. Consider IRLSCGRVGGVV, for which the protein stability index came to 0.648 ± 0.012. With IRLYGQATFRWE the figure was 0.625 ± 0.086. With IRNDERHSKNQD the figure was 0.74 ± 0.062; with IRNGYVGNYKGN, 0.744 ± 0.025; with IRQRSRGGLSSD, 0.684 ± 0.021. IRYARSYDMSEC returned a protein stability index of 0.654 ± 0.04. With ISCWHGYAKESS the figure was 0.671 ± 0.039.

Take ISIVKENSSLTC: the protein stability index worked out at 0.6552 ± 0.0053. With ISPCCGVPWLLR the figure was 0.708 ± 0.025; with ISRFSLTFPFHR, 0.6947 ± 0.0039.

The sequence ISRSLVDHQARP registered a protein stability index of 0.695 ± 0.045. With ISVLSIFVDSFV the figure was 0.528 ± 0.0062. With ISWCPRHPFSSD the figure was 0.752 ± 0.014; with ISWERIHEKKRK, 0.784 ± 0.096; with ISYGSGCGIVNH, 0.683 ± 0.054.

For the sequence ISYYDVYLSFLF, the protein stability index was determined as 0.745 ± 0.13. With ITGPPTGSPRYR the figure was 0.588 ± 0.23. ITIVVATRPPGA displayed a protein stability index of 0.617 ± 0.013. With ITLFPKGLRANK the figure was 0.686 ± 0.045; with ITLLYFAGVSVL, 0.513 ± 0.0074. With ITRATPILSYKK the figure was 0.677 ± 0.09; with ITSLQAPPEYLH, 0.6922 ± 0.0062.

ITTVRGALLARY: the protein stability index turned out to be 0.666 ± 0.068. With ITYRTSGMGIRA the figure was 0.6182 ± 0.0028. With IVALDGWPGVEA the figure was 0.7226 ± 0.0055; with IVCLWVAGHFGL, 0.602 ± 0.014.

In turn, IVHIKRVLGNAA came in with a protein stability index of 0.636 ± 0.012. On to IVPVCFVTDQHA, for which the protein stability index is 0.6605 ± 0.00071.

IWGGAVQARFKG returned a protein stability index of 0.733 ± 0.14. Turning to KADLKTKNMCRL, the protein stability index was 0.765 ± 0.017. With KAEKMRARQKED the figure was 0.657 ± 0.011; with KAGKFLVGKSLS, 0.657 ± 0.026; with KCPPQKRPTLIQ, 0.679 ± 0.098.

KDEVESGRGLIS showed a protein stability index of 0.633 ± 0.044. With KDRGEIKIRTKN the figure was 0.696 ± 0.039. With KDTDTAHETERK the figure was 0.697 ± 0.033; with KDTHNEKKGTPS, 0.686 ± 0.082; with KECTWRQGKYNA, 0.752 ± 0.089. With KEEKNEENNKKE the figure was 0.641 ± 0.033; with KEIRNNEKKKKK, 0.657 ± 0.013. With KEKIGIQIKKKR, the protein stability index turned out to be 0.675 ± 0.047. With KELQKKRIKKKN the figure was 0.733 ± 0.078; with KEQKNNRKVTKK, 0.715 ± 0.046; with KERQERGKRKII, 0.536 ± 0.035.

In the case of KGDKIEFVENKY, the protein stability index stood at 0.641 ± 0.022. With KGDPKLTKKKPL the figure was 0.613 ± 0.077; with KGKRQNIERCRK, 0.644 ± 0.099; with KGVEVPGERMVG, 0.742 ± 0.021.

For the sequence KGVLTKRAVPST, the protein stability index stood at 0.703 ± 0.025.

KHGLSDRAPLPK displayed a protein stability index of 0.698 ± 0.05. The sequence KHGSKEAHKNEN came in with a protein stability index of 0.695 ± 0.015. With KHKKKKKEYKKK the figure was 0.729 ± 0.03; with KHKRDRNIYKVT, 0.679 ± 0.026; with KHRGAQRSRARH, 0.645 ± 0.012. KHSRKPTHKKLI came in with a protein stability index of 0.69 ± 0.016. With KHTKRIRLYKTK the figure was 0.7831 ± 0.0034. Sequence KIGNDQNVEDRK came in with a protein stability index of 0.756 ± 0.059. With KIIARMEKGKEI the figure was 0.771 ± 0.042; with KIKEKNEKRELI, 0.686 ± 0.11. With KIKGVKEEIVKM the figure was 0.686 ± 0.029; with KIKKKKKNKTNR, 0.676 ± 0.014; with KIKKKRGKTKKK, 0.708 ± 0.018. With KIKKNKNKKKKS the figure was 0.686 ± 0.009. Sequence KIKNYNSGKIKK gave a protein stability index of 0.716 ± 0.024. With KIKTNLRQKTKN the figure was 0.654 ± 0.016; with KIKVKTKKWNIK, 0.681 ± 0.018.

As to KILRRIFRNGGA, the protein stability index was 0.615 ± 0.062.

Turning to KIMKINIYQKKR, the protein stability index turned out to be 0.691 ± 0.028. With KINQDKKKGKKK the figure was 0.686 ± 0.079; with KIQGGKQKTVDD, 0.824 ± 0.25; with KIYESPLLEIKI, 0.617 ± 0.032. With KKEDNKEKYRKK the figure was 0.667 ± 0.013; with KKEKDKTINKQK, 0.697 ± 0.067; with KKEKEKRRDRWR, 0.661 ± 0.014.
